Experimental data: the supplement of paper PMC12455559

Assay: purified protein yield per well (BCA); higher = higher soluble expression
Summary of the method: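 Values under 25 ug (0.1 mg/mL) are below the detection threshold. Purified protein yield per well was quantified with the Pierce Rapid Gold BCA kit after candidate enzymes, expressed in E. coli C41(DE3), were captured on Ni-charged magnetic beads and released by SUMO protease on an OT-2 robot. Cultures were 2 mL autoinduction with 100 µg/mL kanamycin, run 2 h at 37 °C and then 40 h at 18 °C.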

Purified protein yield per well, < 25 µg:
RPSSAATSLAATQRGPDPTVAMIEATRGPFATAQVSVPSGHGFGGGMIYYPTDTSLGTWGALAIVPGYSALFANEEAWMGPWLSSFGFVVIGVETNTRTDSDSQRAAELQAALDYLTTQSPVRNQVDPTRLSVLGHSAGGAGAIEEAEQHPSLRALIGLAPGFPGQGLSMATDKVPSLIIGGQADGTVTPSYLANLYGTLPASTQSAFAQIAGADHVYYTHPNNVEMKLIIPWLKLFVDGDNRYQQFLCPALPDPSTISAYQPKCPYTPPGGSTSSSSSSTTTTTTTTSTTPTSTSSSPSGSCSATYQTQNYWPGGFQGLVTVTAGSAPISKWTVKWTLSSGQTITQVWNGTLSTSGSAVSVANVSYNGSLSPGTSTTFGFLANGPTSAPTLSCTGS [ESM039]
RSAPDAAAPRAASGNPYQRGPDPTVASIEATRGPFATAQLNVAPGNGFNGGVVSYPTDTSLGTWGALAIVPGYSALCADEEAWMGPWLSSFGFVVICVETNTRTDSADARAAELLAALNWLTTQSPVKGQIDPGRLSVLGHSAGGAGAILAAERQPSLKAMIGLAPGFPGNGLSMATDTVPTLVIGGQNDTVVTPSYLSGLYATLPGTTQSGFAQIAGADHVYYTRPNNVEMKLLIPWLKLFVDSDTRYSPFLCPALPDPSAVSIYQPKCPYTPPGGSTPPPSTSSGPPMSPAGGRPVHAVGAGKCLDVPGLSATAGTQTDIRTCDGGAGQLWTRASAGRLTVQTGGSTMCLDAAGRGASPGTKVQIWPCNGGSNQQWNVNANGTITGTQSGLCLDVTGGSTADGALVELWTCNGGSNQQWTSQ [TEP076]
RSGPYQVAYYTQLPPVPEFGAATLYFPANKGQDFSGVVIAPGYIEQQENISWWGNHLASHGFAVLTIDTNSLQDNPQLRAEALMAGVELLRGENTRMGGTLRGKFHEQQMAVMGHSMGGGGALLAANNSGGELKAAIPLTPWLPDGDFGAVAVPTLLISGETDRIAAVADHARLHYQSLPEELTKMYLEIKGGNHFIANSIVENEGLNPNIDVRDLVGGMA [TEP023]
SAAGNNIGHRQGGDTFASATVIEALPFSDSGTTSGFNNDYGPYSNQSSYNICQWQGYYDNTNTGAGPDVVYSLALSEEKTVKISLCGSDYDTGLGVFDGSGVQVLGNDDACSLQSEVVCALPEGLYYIVVDGYSTSSGNYVLNVSIEEDLFGPYSVGTITEDDGLRDGPDYCCGIVYYPTDAVGYLPAIVYIPGYAGTISSNENWGPYLASHGIVTMFVNANFSLASNETRAEALLDGLVTIQDENQRPGSPLYGNLNLNQLAVAGHSRGGGAALLAAAAEPSVNAVLALAPWLEDQFINSTTLDQDVPVLFLSGQLDESAPNDVHTNLFYAYTPETTDKLLYEISGGDHFIVKDPSNNSAMAMKALYWLEKYLTNDPTHC [TEP001]
SAPVHHRAATHTSAAAHHHAPFAVRTTVVPRTAVTKFGGGVIYAPLDTGKPVLGAVVITPGFTDTNANEKEMAELVASQGFVAFAIDTLTTDDLPDLRAAQMLAAADYLTGQSAVRSEVSQDDVGLIGYSFGGGGTMQAAQSRPSIKAAIGLMPFDFPPATDPNAMYPSYPKMTTPTLVITGQKDDVADPKDFGKPAYDSIPAGTPKQYLELAGIGHEGGQHVPSATIRNAVTAFLKRYLDGNSAYAKFICPAPKVGGPISASLSSCPKG [ESM131]
SASASAPAASRVQAAASGNTYQRGPDPTLSSVAASTGPFATAQVSVPAGYGFKGGMIYYPTDTSLGTWGAVAIVPGYTALFANEEAWMGPWLASFGFVVIGVETNSTTDYDTQRGTELLAALNYLTTQSPVRDRVDPTRLGVIGHSMGGGGVVYATEHQPSLKGAVALAPFSPSQSMATDTVPTMVMGGQNDTVVTPSYLAGLYATLPASTQSDFIQIAGADHIYYTHPNPVEMRILIPWLKTFLDEDTRYTQFLCPTLADPSGVSMYQSKCPYVPGGGSTPPPPAGGALHAVGAGKCVDVPNSTTTSGTQVQIYSCNGQANQAFTHNSAGELAVTDAGVTDCLDANGKGTTNGTKVIIYPCNGQPNQQWTINSNGTITGVQSGLCLDVTGASTANGALVELWTCNGGSNQKWTLS [TEP058]
SGGSSPDGPRESRQDGPSSAGPSYPSAGPLEGPYEVRTQTVGPDDVGGRFRGGTVYYPADGSRDYGVIAASPGLGADQSMVQAYGALLASHGFVLITFDTKTPQDSPAQRGRQMLDALDWAAEHSAAAGRADPDRLGVMGHSMGGGAALHAASRDPRIKAAVPLTPYAGKRDWSGVTAATLVVSGSDDEVAPPSGHARAFYDGLDDAKEKAYLELKGDHFVATPPDRLVSRQTVAWFKHFVGGDKAAGEDLCPAPREERVVASRDTCPYG [TEP134]
SNPAPEPSPTPSPSPSQPSNPFQRGPNPTVASVESAGPFAVRTSRVSSAVSGFGGGTIYYPSGTTGTMAAIVVIPGYVSSQSSIEWWGPRLASNGFVVMTIDTNATTDQPPARARQINAALDYLIAQNRASGSPVNGMIDTSRLGVVGWSMGGGGTLRVASEGRIKAAIPLAPWDTTTFRNVKAPTLIFACESDTIAPVRNHASPFYNQVPTSIPKAFVQLNRGNHYCANGGNAFNADLSRLGVSWMKRFLDNDRRFSQFLCGPN [ESM016]
SPPIVRYDYAPGKYSGNGPYSYSTYQLPGWSPGATVYYPTNASPPFSGIVFCPPYTGTQSNFAAWGPFFASHGIVLVTMDTSSTLISVDQRAIEQRMVLDLLKAERNRPGSPLYNKIDPERVGAMGWSMGGGASWINSAEYPGLKTAMSLAGHHLTAINPNAKGYGTQCPTIIFCGLLDQTILGGMLQSETVYYNIPSGIPKVFYEVSTAGHFVWYSPTAANSHVAELALAFQKTFLDGDTRWEQYIEEPLFD [TEP034]
SPVLALVAGPALANPYQRGPDPTDASITAETGPFKTASVVVPSNTDPGFAGGTIYYPTDTSQGTFAPIVVTPGFVSPQWAISWYGPRLASQGFVVMTIDTLGLFDVVDQRGKEMLAALDYLTNRSAVKDRIDPTRPGLMGHSMGGGGVIRAAAERPGIKAVVPLAPWDPNSSYAWNVKADTLVVGGESDMIAPVAANAEPIYKDLRSAPEKAYLELSGADHVFAFNLPNTTIAKYAIAWMKRFLDDDVRYDRFLCPAPAPGGAIKQYQDTCPNG [TEP158]
SQGTFGAAVVSPGFLSPQVAWAGPRIASHGFVVLTIDTNTIFDSPTSRSQQLQAALSYLVSPASGVANRIDPSRLAAMGHSMGGGGTLELAARLPTLQAAVPLQPWDIAQSFSGIRVPTMIIGAQADFIAPVASHSEPFYQQVPATTEKAYLEVAGADHLIGLLGNPTQARYSVAWLKRYVDDDTRYDQFICPPPSGPTISEYRNTCPP [TEP153]
SSVNCDSLAQIALLNPGPYSVSSLDESDNIRNGPDYAGAHIYYPTNASGSLSSIVLVPGFMNFESTLQNWGPFLAAHGIVTMTIGANYLTDSPTHRKEALLDAIVTLKAEQTRIGSPLYYSLNINNFAVGGFSMGGGGAQLAAVSDPTIKAIIALNPYLSNASEADFNHNCPVLITSGELDFIANPNLHANVHYAVTPDSTPKQLYEIQNAGHDPLIGPNGGYGEVGMKVLSWLQAFLNDNHCYCPPILTVPTTASSFTHNIVCEDLFIQGCTDSTACNYNPNATIDDGSCETQSCACPGDLNGDYAITVADVLLTLSEFGCMTNCTADIDGDGFVNVTDILELLSMFGTVC [TEP145]
STPAHHAAARTAAHHHAPFAVRATVVPKTAVKAFGGGVIYTPQDTGKAVLGAVVITPGFTDTSADEKEMAELVASQGFVAFAIDTLDTGDLPDQRATEILAAADYLTGQSAVRSEVSAKDVGLIGYSFGGGGTMQAAQARPSIKAAIGLMPYDFPPADQPDAQYPAYPKLTTPTLVITGQKDDLAVPAEFGKPAYDSIPAGTPKQYLELKGLGHAAGEHVPVATIRTAVTAFLKRYLDGNSAYAKYICPAPKVGGPISASTSSCPKG [TEP196]
STPVHHAAARTAVPHHAPFAVRTTVVPKTAVKAFGGGVIYTPQDTGKPVLGAVVITPGFTDTNADEKATAELVASQGFVAFAIDTLDVYDLPDQRATEMLAAADYLTGTSAVKSEVSANDVALLGYSFGGGGTMQAAQSRPSIKAAVTLMPYDFPPADQPDAQYPAYPKLTVPTLVITGQKDDVAVPADFGKPAYDSIPAGTPKQYLELKGLDHYAGHRAPTPTIRTAVTAFLKRYLDGNSAYAKFICPAPKVGGPITASISSCPKG [ESM164]
